± gives the uncertainty stated by the source.

The labels stand for the following.
B1: Ankyrin repeat and SAM domain-containing protein 6, residues 774 to 836; numbered along this chain, Q68DC2 (parent)
chain: DEDELTGILKKLSLEKYQPIFEEQEVDMEAFLTLTDGDLKELGIKTDGSRQQILAAISELNAG

In the series the parent is B1. Kind of series: abundance fitness (aPCA) (normalised: wild type 0, dead -1); higher = more abundant; growth selection in yeast, the domain comes from the species named. Particulars: Homo sapiens.
Regarding DEDELTGILKKLSLEKYQPSFEEQEVDMEAFLTLTDGDLKELGIKTDGSRQQILAAISELNAG [I20S], the abundance fitness was -0.301 ± 0.062.
Take DEDELTGILKKLSLEKYQPWFEEQEVDMEAFLTLTDGDLKELGIKTDGSRQQILAAISELNAG [I20W]: the abundance fitness is -0.252 ± 0.097.
Turning to DEDELTGILKKLSLEKYQPLFEEQEVDMEAFLTLTDGDLKELGIKTDGSRQQILAAISELNAG [I20L], the abundance fitness is -0.124 ± 0.06.
For DEDELTGILKKLSLEKYQPHFEEQEVDMEAFLTLTDGDLKELGIKTDGSRQQILAAISELNAG [I20H] the value was -0.213 ± 0.16; for DEDELTGILKKLSLEKYQPQFEEQEVDMEAFLTLTDGDLKELGIKTDGSRQQILAAISELNAG [I20Q], -0.083 ± 0.061; for DEDELTGILKKLSLEKYQPEFEEQEVDMEAFLTLTDGDLKELGIKTDGSRQQILAAISELNAG [I20E], -0.299 ± 0.12.
For DEDELTGILKKLSLEKYQPPFEEQEVDMEAFLTLTDGDLKELGIKTDGSRQQILAAISELNAG [I20P] the value was -0.617 ± 0.08; for DEDELTGILKKLSLEKYQPVFEEQEVDMEAFLTLTDGDLKELGIKTDGSRQQILAAISELNAG [I20V], 0.101 ± 0.093; for DEDELTGILKKLSLEKYQPDFEEQEVDMEAFLTLTDGDLKELGIKTDGSRQQILAAISELNAG [I20D], -0.091 ± 0.15.
For DEDELTGILKKLSLEKYQPMFEEQEVDMEAFLTLTDGDLKELGIKTDGSRQQILAAISELNAG [I20M] the value was 0.09 ± 0.06; for DEDELTGILKKLSLEKYQPRFEEQEVDMEAFLTLTDGDLKELGIKTDGSRQQILAAISELNAG [I20R], -0.046 ± 0.05.
For the variant DEDELTGILKKLSLEKYQPCFEEQEVDMEAFLTLTDGDLKELGIKTDGSRQQILAAISELNAG [I20C], the abundance fitness amounted to 0.015 ± 0.074.
For DEDELTGILKKLSLEKYQPGFEEQEVDMEAFLTLTDGDLKELGIKTDGSRQQILAAISELNAG [I20G] the value was -0.494 ± 0.065; for DEDELTGILKKLSLEKYQPTFEEQEVDMEAFLTLTDGDLKELGIKTDGSRQQILAAISELNAG [I20T], -0.096 ± 0.068; for DEDELTGILKKLSLEKYQPKFEEQEVDMEAFLTLTDGDLKELGIKTDGSRQQILAAISELNAG [I20K], -0.104 ± 0.07.
In the case of DEDELTGILKKLSLEKYQPAFEEQEVDMEAFLTLTDGDLKELGIKTDGSRQQILAAISELNAG [I20A], the abundance fitness is -0.111 ± 0.059.
As to DEDELTGILKKLSLEKYQPFFEEQEVDMEAFLTLTDGDLKELGIKTDGSRQQILAAISELNAG [I20F], the abundance fitness is -0.352 ± 0.17.
For DEDELTGILKKLSLEKYQPNFEEQEVDMEAFLTLTDGDLKELGIKTDGSRQQILAAISELNAG [I20N] the value was -0.015 ± 0.097; for DEDELTGILKKLSLEKYQPYFEEQEVDMEAFLTLTDGDLKELGIKTDGSRQQILAAISELNAG [I20Y], -0.273 ± 0.072.
Turning to DEDELTGILKKLSLEKYQPIFIEQEVDMEAFLTLTDGDLKELGIKTDGSRQQILAAISELNAG [E22I], the abundance fitness is -0.854 ± 0.36.
For DEDELTGILKKLSLEKYQPIFGEQEVDMEAFLTLTDGDLKELGIKTDGSRQQILAAISELNAG [E22G] the value was -0.388 ± 0.054; for DEDELTGILKKLSLEKYQPIFLEQEVDMEAFLTLTDGDLKELGIKTDGSRQQILAAISELNAG [E22L], -0.179 ± 0.045.
As for DEDELTGILKKLSLEKYQPIFYEQEVDMEAFLTLTDGDLKELGIKTDGSRQQILAAISELNAG [E22Y], the abundance fitness is -0.231 ± 0.075.
Turning to DEDELTGILKKLSLEKYQPIFMEQEVDMEAFLTLTDGDLKELGIKTDGSRQQILAAISELNAG [E22M], the abundance fitness was -0.091 ± 0.072.
For DEDELTGILKKLSLEKYQPIFKEQEVDMEAFLTLTDGDLKELGIKTDGSRQQILAAISELNAG [E22K] the value was -0.103 ± 0.052; for DEDELTGILKKLSLEKYQPIFSEQEVDMEAFLTLTDGDLKELGIKTDGSRQQILAAISELNAG [E22S], -0.059 ± 0.046; for DEDELTGILKKLSLEKYQPIFTEQEVDMEAFLTLTDGDLKELGIKTDGSRQQILAAISELNAG [E22T], -0.093 ± 0.054.
For DEDELTGILKKLSLEKYQPIFDEQEVDMEAFLTLTDGDLKELGIKTDGSRQQILAAISELNAG [E22D] the value was -0.149 ± 0.072; for DEDELTGILKKLSLEKYQPIFFEQEVDMEAFLTLTDGDLKELGIKTDGSRQQILAAISELNAG [E22F], -0.402 ± 0.074.
For the variant DEDELTGILKKLSLEKYQPIFQEQEVDMEAFLTLTDGDLKELGIKTDGSRQQILAAISELNAG [E22Q], the abundance fitness is -0.104 ± 0.063.
As for DEDELTGILKKLSLEKYQPIFAEQEVDMEAFLTLTDGDLKELGIKTDGSRQQILAAISELNAG [E22A], the abundance fitness was -0.107 ± 0.04.
In the case of DEDELTGILKKLSLEKYQPIFCEQEVDMEAFLTLTDGDLKELGIKTDGSRQQILAAISELNAG [E22C] it was -0.299 ± 0.072; in that of DEDELTGILKKLSLEKYQPIFHEQEVDMEAFLTLTDGDLKELGIKTDGSRQQILAAISELNAG [E22H], -0.394 ± 0.094; in that of DEDELTGILKKLSLEKYQPIFVEQEVDMEAFLTLTDGDLKELGIKTDGSRQQILAAISELNAG [E22V], -0.256 ± 0.048.
In the case of DEDELTGILKKLSLEKYQPIFWEQEVDMEAFLTLTDGDLKELGIKTDGSRQQILAAISELNAG [E22W] it was -0.743 ± 0.068; in that of DEDELTGILKKLSLEKYRPIFEEQEVDMEAFLTLTDGDLKELGIKTDGSRQQILAAISELNAG [Q18R], -0.025 ± 0.071.
With DEDELTGILKKLSLEKYPPIFEEQEVDMEAFLTLTDGDLKELGIKTDGSRQQILAAISELNAG [Q18P], the abundance fitness is -0.786 ± 0.092.
For DEDELTGILKKLSLEKYYPIFEEQEVDMEAFLTLTDGDLKELGIKTDGSRQQILAAISELNAG [Q18Y] the value was -0.539 ± 0.2; for DEDELTGILKKLSLEKYSPIFEEQEVDMEAFLTLTDGDLKELGIKTDGSRQQILAAISELNAG [Q18S], -0.075 ± 0.075; for DEDELTGILKKLSLEKYVPIFEEQEVDMEAFLTLTDGDLKELGIKTDGSRQQILAAISELNAG [Q18V], -0.12 ± 0.057.
On to DEDELTGILKKLSLEKYWPIFEEQEVDMEAFLTLTDGDLKELGIKTDGSRQQILAAISELNAG [Q18W], for which the abundance fitness is -0.31 ± 0.057.
Consider DEDELTGILKKLSLEKYNPIFEEQEVDMEAFLTLTDGDLKELGIKTDGSRQQILAAISELNAG [Q18N], for which the abundance fitness was -0.538 ± 0.5.
For DEDELTGILKKLSLEKYTPIFEEQEVDMEAFLTLTDGDLKELGIKTDGSRQQILAAISELNAG [Q18T] the value was -0.076 ± 0.075.

These data come from the Human Domainome abundance scans (Beltran et al. 2025).
